The results in this text go back to patent publication US20250154272A1.

The assay addresses human CD137-His tag protein (R&D Systems, 9220-4B) (human) (UniProt Q07011). Briefly: ELISA, human CD137-His tag protein immobilized on the plate, anti-human IgG Fc-HRP, A450-A570. On the technique in general: An ELISA detects its analyte on a solid surface through an enzyme-linked reagent.

B1: ctrl IgG_L-3-34-j6 (antibody, part only; not given: isotype control IgG chains and linker, not shown: another chain or arm of the molecule; small tags and cut ends)
scFv: EVQLLESGGGLVQPGESLRLSCKAFGYTFTNHHINWVRQAPGKCLEWVGYINPYNDYTTFNDKFKDRFTLSVDKSKSTAYLQMNSLRAEDTAVYYCARTWGHWYFDLWGQGTLVTVSSGGGGSGGGGSGGGGSNIQMTQSPSSLSASVGDRVTITCRASQSVSSNLAWYQQKPGKAPKLLIYDSSTRATGVPSRFSGSGSGTDFTLTISSLQPEDFATYYCQQYNNWPPWTFGCGTKLEIKR
The molecule B1 had a concentration giving a half-maximal response (EC50 (read off the curve)) of 4 ng/mL.

By EC50 (read off the curve) is commonly meant the midpoint of the concentration-response curve.
